From US8163697B2, “Selective R-cadherin antagonists and methods” (The Scripps Research Institute, priority 2003, dated 2012)
Where a SMILES comes first, the peptide text is derived from it. Bridges are numbered along the chain shown (N, C = ends). Where no end group is shown, it is not given here.

Assays:
[1] = target: T1, R-cadherin (Mus musculus, UniProt P39038); experiment: Aggregation assay, R-cadherin transfected L-cells; format: cell-based; conditions: R-cadherin expressing L-cells
T1 construct: expressed in transfected cells
T1 sequence (P39038 167-913): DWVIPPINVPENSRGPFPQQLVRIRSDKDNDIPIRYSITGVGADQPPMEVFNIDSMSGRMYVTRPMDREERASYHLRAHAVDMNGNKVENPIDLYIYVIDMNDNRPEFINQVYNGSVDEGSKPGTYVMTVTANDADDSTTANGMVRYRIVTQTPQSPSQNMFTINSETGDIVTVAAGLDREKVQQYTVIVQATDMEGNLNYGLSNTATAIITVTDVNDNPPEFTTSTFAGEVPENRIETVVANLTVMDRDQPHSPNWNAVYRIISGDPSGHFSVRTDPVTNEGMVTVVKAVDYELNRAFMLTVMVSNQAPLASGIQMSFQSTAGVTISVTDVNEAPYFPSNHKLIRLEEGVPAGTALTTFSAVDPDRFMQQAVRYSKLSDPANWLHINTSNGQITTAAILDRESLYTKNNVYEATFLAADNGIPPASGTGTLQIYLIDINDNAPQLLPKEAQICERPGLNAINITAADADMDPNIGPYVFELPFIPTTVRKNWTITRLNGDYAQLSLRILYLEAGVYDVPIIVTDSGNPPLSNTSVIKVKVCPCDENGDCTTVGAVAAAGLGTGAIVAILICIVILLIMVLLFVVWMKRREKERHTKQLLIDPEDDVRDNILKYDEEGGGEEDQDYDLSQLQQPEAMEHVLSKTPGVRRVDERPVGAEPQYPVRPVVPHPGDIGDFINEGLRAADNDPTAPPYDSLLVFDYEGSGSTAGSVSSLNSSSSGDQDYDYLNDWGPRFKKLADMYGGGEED
Description: (§1) Mouse R-cadherin and N-cadherin plasmids were generous gifts from Dr. Masatoshi Takeichi (Kyoto University, Japan). The plasmids were sub-cloned into pDsRed2 N1 vectors (Clontech) to encode for fusion proteins with Red Fluorescent Protein (RFP) attached to the C-terminal end of the cadherin molecules. L-cells (mouse fibroblast L929 cells, ATCC #CRL-2148) were stably transfected with either R or N-cadherin pDsRed2 N1 using the Calcium Phosphate Transfection System (Life Technologies) according to the manufacturer's protocol. After screening by growth in media supplemented with Geneticin (700 μg/mL G418 Geneticin, Gibco BRL), positive clones were selected. Cells were examined for expression of RFP, and were tested for cadherin expression by immunoblotting and immunofluorescence staining. FIG. 6 illustrates the aggregation of L-cells expressing R and N-cadherins.
L-Cells were grown to near confluency followed by trypsinization with 0.01% trypsin+5 mM CaCl2 and no EDTA (TC) or 0.01% trypsin with 0.1 mM EDTA and no calcium (TE). The cells were collected and washed, followed by resuspension in Hanks buffer solution (HBSS)+1% BSA with (TC) or without (TE) 5 mM CaCl2. Cells were incubated at 37° C. in 0.5 mL solution at 2×10^5 cells per well of a 24 well plate with rocking at about 60-70 rpm with varying peptide concentrations. All assays were performed in triplicate. The extent of cellular aggregation was represented by the ratio of the total particle number after 2 hours of incubation (N2hr) to the initial particle number (N0). Particles were counted on a hemocytometer using the sum of 8 separate 20 μL counts/well, before (N0) and after (Nt) incubation. […]
Mouse fibroblast cells (lineage L929), commonly referred to as L-cells, were chosen because they are known to contain no endogenous cadherin expression. […] Immunoblot analysis detected high levels of R-cadherin and no N-cadherin expression in R-cadherin clone 8 (R-cad8), while high levels of N-cadherin expression and no R-cadherin expression was found in N-cadherin clone 3 (N-cad3), as shown in FIG. 7. […]

[2] = target: T2, N-cadherin (Mus musculus, UniProt P15116); experiment: Aggregation assay, N-cadherin transfected L-cells; format: cell-based; conditions: N-cadherin expressing L-cells; for IC50: 2 hours incubation, 5 mM CaCl2, read-out: IC50, inhibition of N-cadherin mediated aggregation
T2 construct: expressed in transfected cells
T2 sequence (P15116 160-906): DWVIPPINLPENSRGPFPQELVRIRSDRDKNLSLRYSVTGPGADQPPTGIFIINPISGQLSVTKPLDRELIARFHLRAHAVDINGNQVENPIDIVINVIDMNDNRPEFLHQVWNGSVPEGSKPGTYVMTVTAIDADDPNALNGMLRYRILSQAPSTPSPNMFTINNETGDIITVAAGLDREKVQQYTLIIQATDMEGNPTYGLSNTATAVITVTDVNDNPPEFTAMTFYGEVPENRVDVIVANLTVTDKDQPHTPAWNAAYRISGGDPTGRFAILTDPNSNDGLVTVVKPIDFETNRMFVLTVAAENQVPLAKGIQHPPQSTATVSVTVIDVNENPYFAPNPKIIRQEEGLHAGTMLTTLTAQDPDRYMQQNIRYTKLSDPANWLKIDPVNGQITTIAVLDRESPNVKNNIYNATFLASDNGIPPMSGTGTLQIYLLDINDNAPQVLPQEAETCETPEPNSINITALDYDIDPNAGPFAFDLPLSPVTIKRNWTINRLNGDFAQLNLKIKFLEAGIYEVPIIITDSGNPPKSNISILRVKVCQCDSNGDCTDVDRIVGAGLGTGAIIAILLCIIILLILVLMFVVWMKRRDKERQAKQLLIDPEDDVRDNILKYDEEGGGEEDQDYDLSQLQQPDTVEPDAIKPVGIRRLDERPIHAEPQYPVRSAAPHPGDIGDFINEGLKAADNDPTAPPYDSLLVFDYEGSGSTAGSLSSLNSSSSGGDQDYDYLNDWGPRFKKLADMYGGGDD
Description: as §1
L-Cells were grown to near confluency followed by trypsinization with 0.01% trypsin+5 mM CaCl2 and no EDTA (TC) or 0.01% trypsin with 0.1 mM EDTA and no calcium (TE). The cells were collected and washed, followed by resuspension in Hanks buffer solution (HBSS)+1% BSA with (TC) or without (TE) 5 mM CaCl2. Cells were incubated at 37° C. in 0.5 mL solution at 2×10^5 cells per well of a 24 well plate with rocking at about 60-70 rpm with varying peptide concentrations. All assays were performed in triplicate. The extent of cellular aggregation was represented by the ratio of the total particle number after 2 hours of incubation (N2hr) to the initial particle number (N0). Particles were counted on a hemocytometer using the sum of 8 separate 20 μL counts/well, before (N0) and after (Nt) incubation. The results are illustrated in FIG. 8.
Mouse fibroblast cells (lineage L929), commonly referred to as L-cells, were chosen because they are known to contain no endogenous cadherin expression. R-cadherin stable transfectants were created and used to test the effects of the designed peptides on R-cadherin mediated aggregation. N-cadherin stable transfectants were also created and used to evaluate the peptides for cadherin selectivity, based on their effects on N-cadherin mediated aggregation. Immunoblot analysis detected high levels of R-cadherin and no N-cadherin expression in R-cadherin clone 8 (R-cad8), while high levels of N-cadherin expression and no R-cadherin expression was found in N-cadherin clone 3 (N-cad3), as shown in FIG. 7. Immunofluorescence confirmed the expression of the appropriate cadherin in these chosen clones. When tested in the aggregation assay, the morphology of the transfected cell lines was altered as a result of cadherin transfection. […]

Row | IC50 ([1]; 2 hours incubation, 5 mM CaCl2, read-out: IC50, inhibition of R-cadherin mediated aggregation) | IC50 [2] | effect on R-cadherin mediated aggregation [1] | effect on N-cadherin mediated aggregation [2] | Compound
1 | 150 to 200 µM | 150 to 200 µM | – | – | CC(=O)N[C@H]1CSSC[C@@H](C(N)=O)NC(=O)[C@H](C(C)C)NC(=O)[C@H](C)NC(=O)[C@H](Cc2c[nH]cn2)NC1=O [cyclic HAV, CHAVC]
2 | – | < 300 µM | – | – | CC[C@H](C)[C@@H]1NC(=O)[C@@H](NC(C)=O)CSSC[C@@H](C(N)=O)NC(=O)[C@@H]2CCCN2C(=O)[C@H](CC(N)=O)NC1=O [cyclic INP, cyclic CINPC] (Ac-CINPC-NH2; disulfide 1-5)
3 | – | – | little effect | little effect | cyclic CRADC (disulfide 1-5; also: peptides said to be amide-blocked at N-terminus and acetylated at C-terminus (as worded)) [cyclic RAD, control cyclic peptide CRADC]
4 | – | – | little effect | little effect | cyclic CSDIC (disulfide 1-5; also: peptides said to be amide-blocked at N-terminus and acetylated at C-terminus (as worded)) [cyclic SDI, control cyclic peptide CSDIC]
